Test [1] concerns the target T1, CCR8 (UniProt P51685 1-355, limits assumed).
T1 construct: whole, on cells; also called CHO-CCR8
The experiment in a line: FACS on CHO-CCR8 cells.

The target of test [2] is T2, CXCR4 (UniProt P61073 1-352, limits assumed).
T2 construct: whole, on cells; also called HEK293-CXCR4
The experiment in a line: FACS on HEK293-CXCR4 cells.

In test [3] the target is T3, CCR9 (UniProt P51686 1-369, limits assumed).
T3 construct: whole, on cells; also called PF382 cells (CCR7-/CCR9+/CCR6+)
T3 sequence (looked up): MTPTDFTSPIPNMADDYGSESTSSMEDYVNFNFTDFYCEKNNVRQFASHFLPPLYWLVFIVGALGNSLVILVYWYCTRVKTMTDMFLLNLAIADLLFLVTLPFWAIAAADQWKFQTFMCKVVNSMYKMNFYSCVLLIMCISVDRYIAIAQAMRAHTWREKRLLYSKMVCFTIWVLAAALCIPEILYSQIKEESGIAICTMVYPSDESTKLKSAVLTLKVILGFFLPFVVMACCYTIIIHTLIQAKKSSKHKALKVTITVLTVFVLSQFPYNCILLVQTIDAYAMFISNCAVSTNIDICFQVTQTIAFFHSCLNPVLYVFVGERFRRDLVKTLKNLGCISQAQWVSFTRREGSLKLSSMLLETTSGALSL
In words: FACS on PF382 cells (CCR7-/CCR9+/CCR6+).

Test [4] has as its target T4, CCR6 (UniProt P51684 1-374, limits assumed).
T4 construct: whole, on cells; also called PF382 cells (CCR7-/CCR9+/CCR6+)
T4 sequence (looked up): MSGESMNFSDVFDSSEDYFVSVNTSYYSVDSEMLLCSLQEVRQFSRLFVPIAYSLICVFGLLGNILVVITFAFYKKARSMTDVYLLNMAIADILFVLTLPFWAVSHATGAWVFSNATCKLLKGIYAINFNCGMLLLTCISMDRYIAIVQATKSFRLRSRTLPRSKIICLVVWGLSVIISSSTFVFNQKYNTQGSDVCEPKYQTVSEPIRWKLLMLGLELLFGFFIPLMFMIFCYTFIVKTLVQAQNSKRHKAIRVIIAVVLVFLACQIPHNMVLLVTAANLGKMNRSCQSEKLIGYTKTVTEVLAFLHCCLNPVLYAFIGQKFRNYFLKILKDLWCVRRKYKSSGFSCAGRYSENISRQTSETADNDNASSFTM
The experiment in a line: FACS on PF382 cells (CCR7-/CCR9+/CCR6+).

The target of test [5] is T5, human CCR7 (human, UniProt P32248 25-378).
T5 construct: The assay field tells which; also called hCCR7; NIH3T3.hCCR7
T5 sequence: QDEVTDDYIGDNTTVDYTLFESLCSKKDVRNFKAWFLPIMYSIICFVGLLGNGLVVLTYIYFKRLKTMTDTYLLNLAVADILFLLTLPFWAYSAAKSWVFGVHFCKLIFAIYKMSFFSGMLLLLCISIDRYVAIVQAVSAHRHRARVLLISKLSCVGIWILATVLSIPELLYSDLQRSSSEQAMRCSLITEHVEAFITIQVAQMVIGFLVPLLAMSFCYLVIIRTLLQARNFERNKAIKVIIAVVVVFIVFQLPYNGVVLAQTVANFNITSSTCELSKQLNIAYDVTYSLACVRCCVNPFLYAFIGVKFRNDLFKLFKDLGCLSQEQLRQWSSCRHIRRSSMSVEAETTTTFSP
In words: FACS titration, human CD4+ T cells from PBMC.

In test [6] the target is T5, human CCR7. The experiment in a line: ELISA on CCR7-expressing VLPs, pH 5.8 buffer.
Test [7] concerns the target T5, human CCR7. In words: ELISA on CCR7-expressing VLPs, pH 7.4 buffer. Background: ELISA stands for enzyme-linked immunosorbent assay.
Test [8] has as its target T5, human CCR7. The experiment in a line: ELISA on CCR7-expressing VLPs, Kd at pH 5.8 over Kd at pH 7.4.
In test [9] the target is T5, human CCR7. The experiment in a line: cell-based or functional assay.
The target in test [10] is T5, human CCR7. The experiment in a line: FACS titration, DEL cancer cells (receptor density ~100,000).
Test [11] has as its target T5, human CCR7. The experiment in a line: FACS titration, human CD4+ T cells (receptor density <2,000).
The target in test [12] is T6, recombinant hCCR7 (Origene #TP306614) (human, UniProt P32248 25-378, limits assumed).
T6 construct: Bought protein coated on ELISA plates; also called recombinant CCR7
T6 sequence (looked up): T5 sequence
In words: ELISA, recombinant CCR7 coated at 3.5 ug/ml, antibody titrated.

Test [13] has as its target T5, human CCR7. The experiment in a line: FACS titration, NIH3T3.hCCR7 cells (receptor density >1,000,000).
The target in test [14] is T6, recombinant hCCR7 (Origene #TP306614). The experiment in a line: ELISA on plate-coated recombinant hCCR7, antibody titrated, anti-hFc-HRP detection, OD 650 nm.
The target in test [15] is T5, human CCR7. In words: FACS on DEL cells, antibody titrated to 100 nM, panel 'ligand 0uM' (no CCL19), anti-hFc.PE detection.
Test [16] concerns the target T5, human CCR7. The experiment in a line: FACS on DEL cells, antibody titrated to 100 nM together with a constant 1 uM CCL19 (competitor), panel 'ligand 1uM', anti-hFc.PE detection.
Test [17] deals with T5, human CCR7. In words: cell-based or functional assay. The source holds these as a separate data set.
For test [18], the target named is T5, human CCR7. The experiment in a line: FACS titration, Jeko-1 cancer cells (CCR7+).
The target of test [19] is T7, rat CCR7 (rat, UniProt P47774 25-378 (mouse entry)).
T7 construct: also called NIH3T3.rat CCR7
T7 chain: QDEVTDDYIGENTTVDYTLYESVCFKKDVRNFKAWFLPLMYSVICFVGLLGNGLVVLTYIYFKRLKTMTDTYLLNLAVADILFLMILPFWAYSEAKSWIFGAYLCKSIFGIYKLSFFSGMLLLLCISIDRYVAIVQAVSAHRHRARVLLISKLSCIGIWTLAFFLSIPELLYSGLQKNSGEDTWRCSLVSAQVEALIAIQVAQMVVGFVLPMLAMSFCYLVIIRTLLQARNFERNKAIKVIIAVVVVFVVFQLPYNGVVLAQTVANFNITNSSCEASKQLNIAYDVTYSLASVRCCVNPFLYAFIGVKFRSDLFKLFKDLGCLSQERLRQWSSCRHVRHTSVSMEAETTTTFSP
The experiment in a line: FACS titration, NIH3T3 cells expressing rat CCR7.

Test [20] addresses T5, human CCR7. The experiment in a line: FACS titration, NIH3T3 cells expressing human CCR7.
Test [21] concerns the target T8, mouse CCR7 (mouse, UniProt P47774 25-378).
T8 construct: also called NIH3T3.mouse CCR7
T8 sequence: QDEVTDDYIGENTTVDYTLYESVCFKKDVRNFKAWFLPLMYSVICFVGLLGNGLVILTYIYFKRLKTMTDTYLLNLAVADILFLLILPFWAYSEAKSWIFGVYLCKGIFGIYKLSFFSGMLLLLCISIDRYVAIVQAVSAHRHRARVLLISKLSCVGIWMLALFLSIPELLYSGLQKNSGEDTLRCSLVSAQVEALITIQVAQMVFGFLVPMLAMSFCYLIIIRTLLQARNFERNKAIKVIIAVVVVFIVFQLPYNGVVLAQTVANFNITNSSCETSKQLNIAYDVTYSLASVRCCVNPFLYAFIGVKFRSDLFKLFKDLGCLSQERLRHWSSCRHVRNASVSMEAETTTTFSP
The experiment in a line: FACS titration, NIH3T3 cells expressing mouse CCR7.

Here are results for three molecules from patent US20230181756A1 (Novartis, published 2023).

T1 sequence (P51685 whole entry): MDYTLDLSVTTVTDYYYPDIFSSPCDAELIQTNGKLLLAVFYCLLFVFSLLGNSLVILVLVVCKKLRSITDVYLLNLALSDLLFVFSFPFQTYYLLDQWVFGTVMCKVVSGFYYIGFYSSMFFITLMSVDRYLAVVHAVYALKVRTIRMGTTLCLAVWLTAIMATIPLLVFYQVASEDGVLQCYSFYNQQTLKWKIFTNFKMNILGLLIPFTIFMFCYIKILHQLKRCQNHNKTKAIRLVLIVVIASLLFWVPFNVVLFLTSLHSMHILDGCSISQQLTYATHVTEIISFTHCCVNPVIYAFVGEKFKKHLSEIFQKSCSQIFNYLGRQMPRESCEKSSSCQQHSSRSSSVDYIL
T2 sequence (P61073 whole entry): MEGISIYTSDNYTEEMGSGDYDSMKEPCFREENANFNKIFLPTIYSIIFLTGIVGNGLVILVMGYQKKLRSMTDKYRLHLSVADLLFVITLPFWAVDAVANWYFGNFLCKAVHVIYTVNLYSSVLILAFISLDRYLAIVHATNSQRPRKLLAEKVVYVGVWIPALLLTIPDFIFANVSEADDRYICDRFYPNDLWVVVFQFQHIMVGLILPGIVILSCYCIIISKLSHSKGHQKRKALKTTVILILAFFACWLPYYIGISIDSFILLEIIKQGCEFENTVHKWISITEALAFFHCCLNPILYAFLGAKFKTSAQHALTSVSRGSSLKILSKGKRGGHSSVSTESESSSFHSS

B1: 684E12 humanized CysMab (Fc Wild Type) (antibody, V domains shown)
VH: EVQLVESGGGLVKPGGSLRLSCAASGFTFSNFAMSWVRQAPGKGLEWVSTISTGGTYTYYPDSVKGRFTISRDNAKNSLYLQMNSLRAEDTAVYYCARRGYSGVDKWGQGTTVTVSS
VL: DVVMTQSPLSLPVTLGQPASISCKSGQSLLDSTGKTYLNWFLQRPGQSPRRLIYLVSKLDSGVPDRFSGSGSGTDFTLKISRVEAEDVGVYYCWQGTHFPQTFGGGTKLEIK
notes: Human IgG1 kappa with CysMab cysteines; also called Humanized CysMab antibody 684E12
Consider B1, for which the binding result in [1], in [2], in test [3] and in test [4] was “no binding (tested: 5 ug/ml)” each time. For the same molecule, the response in [5] was half-maximal at 6.7 nM (EC50). Further, the Kd (usually the equilibrium constant for the complex coming apart) in test [6] worked out at 0.504 nM; in [7], 0.0374 nM. The “fold change (pH 5.8/7.4)” value in test [8] came out at 13 fold.

B2: Humanized 674J13.CysMab.DAPA (antibody, human IgG1, kappa, V domains shown)
VH: DVQLQESGPGLVKPSQTLSLTCTVSGYSITSGYSWHWIRQHPGKGLEWMAHIHSSGSTNYNPSLKSRITISRDTSKNQFSLKLSSVTAADTAVYYCARGGVQAFAYWGQGTLVTVSS
VL: EIVLTQSPATLSASPGERVTMSCSASSSVIYMHWYQQKPGQAPRRWIYDTSKLASGVPARFSGSGSGTDYTLTISSMEPEDAAVYYCQQWSSNPLTFGQGTKLEIKR
notes: Human IgG1 kappa with D265A/P329A and CysMab cysteines; also called 674J13 (Humanized, CysMab DAPA)
Regarding B2, in test [9], the “pHrodo (6 h MFI), internalization, CD4+ T cells (receptor numbers 2000)” value was 402 MFI; the “pHrodo (6 h MFI), internalization, CMLT1 cells (receptor numbers 19583)” value was 561 MFI; the “pHrodo (6 h MFI), internalization, DEL cells (receptor numbers 110685)” value was determined as 3780 MFI; the “pHrodo (6 h MFI), internalization, JVM3 cells (receptor numbers 8717)” value is 146 MFI. For the same molecule, in [9], the “pHrodo (6 h MFI), internalization, Jeko-1 cells (receptor numbers 28852)” value came to 1390 MFI; the “pHrodo (6 h MFI), internalization, KE97 cells (receptor numbers 152093)” value was determined as 4420 MFI; the “pHrodo (6 h MFI), internalization, L540 cells (receptor numbers 167549)” value was determined as 11800 MFI; the “pHrodo (6 h MFI), internalization, L1236 cells (receptor numbers 61602)” value came out at 5820 MFI. Moreover, in test [9], the “pHrodo (6 h MFI), internalization, MJ cells (receptor numbers 111121)” value amounted to 3260 MFI; the “pHrodo (6 h MFI), internalization, MOTN1 cells (receptor numbers 84200)” value worked out at 2540 MFI; the “pHrodo (6 h MFI), internalization, Mec2 cells (receptor numbers 50840)” value stood at 3000 MFI. The EC50 (usually the concentration needed to bring the measured effect to its halfway point) in test [10] turned out to be 0.47 nM. The EC50 in test [11] is approximately 2 nM. In addition, in test [12], the Kd worked out at 0.006 nM. Moreover, the EC50 in test [13] is 0.64 nM. Further, the EC50 (read off the curve) – broadly, the concentration giving half of the maximal effect – in [14] was approximately 0.07 nM. Besides, the “EC50 (read off the curve)” value in [15] is approximately 2 nM. In addition, the “EC50 (read off the curve)” value in [16] is approximately 2 nM.

B3: 684E12 non-humanized CysMab (antibody, human IgG1, kappa, V domains shown)
VH: EVHLVESGGGLVKPGGSLKLSCAASGFTFSNFAMSWVRQTPEKRLEWVATISTGGTYTYYPDSVKGRFTISRDNAKKTLYLQMSSLRSEDTAMYYCTRRGYDGVDKWGQGTTLTVSS
VL: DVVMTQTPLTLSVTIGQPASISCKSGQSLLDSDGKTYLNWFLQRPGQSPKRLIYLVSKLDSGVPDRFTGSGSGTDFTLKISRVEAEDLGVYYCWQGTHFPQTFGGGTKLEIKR
notes: Chimeric human IgG1 kappa with CysMab cysteines and wild type Fc; also called Parental 684E12 hIgG1 CysMab; Non-humanized CysMab antibody 684E12
For B3, the “ADCC activity; IC50 (nM); reporter assay, JVM2 targets and Jurkat-V158 effectors” value in [17] came to 2.63 nM. The 50% effective concentration (EC50) in test [18] was 12 nM; in [20], more than 30 nM. For the same molecule, the binding result in [19] and in [21] was “no binding” each time.
